For 167 variants, self-cleavage results are on record in the RNAGym collection of RNA variant scans (doi:10.7554/elife.80360).

First the molecules themselves.
B1: CPEB3 Ribozyme (parent)
chain: GGGGGCCACAGCAGAAGCGUUCACGUCGCGGCCCCUGUCAGAUUCUGGUGAAUCUGCGAAUUCUGCUGU

The series covers variants of B1. Briefly: self-cleavage, relative activity (ratio to wild type); higher = more cleavage; co-transcriptional.
In the case of A13U G37U, the self-cleavage is 0.196.

Consider A13U G37C, for which the self-cleavage turned out to be 0.186.

As to C12U U38G, the self-cleavage turned out to be 0.277.

C12U U38C: the self-cleavage was determined as 0.921.

On to A13U C35G, for which the self-cleavage is 0.258.

As for C12U G65A, the self-cleavage stood at 1.

C12U G65U: the self-cleavage worked out at 0.948.

On to C12U G65C, for which the self-cleavage is 0.864.

As to A13G A52C, the self-cleavage is 0.827.

On to A13G A52G, for which the self-cleavage is 1.02.

As for A13G U21G, the self-cleavage was 0.355.

For A13G U21C, the self-cleavage was determined as 0.74.

With A13G U21A, the self-cleavage was 0.966.

With A13G C24U, the self-cleavage was 0.712.

Take A13G C24A: the self-cleavage is 0.54.

For A13C C57A, the self-cleavage was found to be 0.276.

As for C12U G50A, the self-cleavage is 1.

C12U G50C: the self-cleavage was 0.974.

A13C G58A: the self-cleavage was 0.754.

For the variant A13C G58C, the self-cleavage came out at 0.862.

In the case of A13C G58U, the self-cleavage turned out to be 0.933.

On to C12U G48U, for which the self-cleavage was 1.01.

Turning to A13G G25U, the self-cleavage is 0.118.

Regarding A13G G25C, the self-cleavage was determined as 0.135.

On to A13G G25A, for which the self-cleavage came to 0.186.

With A13U A16C, the self-cleavage came to 0.14.

Consider A13U A16U, for which the self-cleavage is 0.34.

With A13U A16G, the self-cleavage was found to be 0.589.

As to A13G G47A, the self-cleavage is 0.994.

A13G G47U: the self-cleavage is 1.06.

As to A13C C45G, the self-cleavage was 0.835.

With A13C C45A, the self-cleavage stood at 0.761.

A13G C32G: the self-cleavage stood at 0.318.

With A13G C32U, the self-cleavage was 0.916.

As to A13G C32A, the self-cleavage came to 0.773.

C12U U64G: the self-cleavage turned out to be 0.757.

With C12U U64A, the self-cleavage was 0.697.

For C12U U64C, the self-cleavage came to 0.785.

With A13C U64A, the self-cleavage was 0.948.

With A13C U64G, the self-cleavage was determined as 0.922.

Turning to A13C G47U, the self-cleavage stood at 0.959.

Turning to A13C G47C, the self-cleavage came to 0.928.

For A13U C27A, the self-cleavage turned out to be 0.207.

As for A13C G25C, the self-cleavage stood at 0.0875.

Consider A13C U20C, for which the self-cleavage came out at 0.128.

As to A13C U20A, the self-cleavage was found to be 0.149.

As to A13C G31A, the self-cleavage is 0.654.

For A13C G31U, the self-cleavage stood at 0.508.

In the case of C12U U53G, the self-cleavage amounted to 0.771.

Turning to C12U U53A, the self-cleavage amounted to 0.909.

For A13U C66U, the self-cleavage amounted to 0.583.

As for A13U C66A, the self-cleavage was determined as 0.323.

In the case of A13G U36A, the self-cleavage came out at 0.222.

In the case of A13G U36C, the self-cleavage stood at 0.816.

Turning to A13U C63A, the self-cleavage is 0.317.

A13U C63G: the self-cleavage came out at 0.294.

Turning to A13U G19C, the self-cleavage was 0.133.

A13U G19A: the self-cleavage is 0.145.

In the case of A13U G19U, the self-cleavage amounted to 0.15.

With A13G C33G, the self-cleavage turned out to be 0.638.

In the case of A13U G41C, the self-cleavage was determined as 0.247.

With A13U G41A, the self-cleavage was 0.263.

A13G G56U: the self-cleavage stood at 0.742.

With A13G G56A, the self-cleavage was found to be 0.934.

For the variant A13G G56C, the self-cleavage stood at 0.421.

A13C C18G: the self-cleavage was found to be 0.0963.

Regarding A13C C18U, the self-cleavage was 0.262.

As to A13C C18A, the self-cleavage came to 0.181.

For A13C C34G, the self-cleavage is 0.498.

Consider A13C U36C, for which the self-cleavage was 0.62.

In the case of A13U G47A, the self-cleavage worked out at 0.893.

As for A13U G47U, the self-cleavage worked out at 0.881.

Turning to A13U G50A, the self-cleavage amounted to 0.776.

As to A13U G50C, the self-cleavage was 0.756.

Turning to A13G C39U, the self-cleavage came out at 0.8.

Take A13G C39G: the self-cleavage was found to be 0.758.

Regarding A13G U61G, the self-cleavage is 0.53.

For A13G U61C, the self-cleavage was 0.402.

Turning to A13C G30C, the self-cleavage came out at 0.451.

A13C G30U: the self-cleavage came to 0.281.

In the case of A13C A15G, the self-cleavage was 0.662.

On to A13G A15C, for which the self-cleavage worked out at 0.196.

On to A13G A15G, for which the self-cleavage is 0.82.

Turning to A13G C66G, the self-cleavage was 0.489.

As to A13G U43C, the self-cleavage was determined as 0.785.

For A13G U43G, the self-cleavage is 0.539.

Consider A13U C33A, for which the self-cleavage was 0.759.

A13U C33G: the self-cleavage came out at 0.333.

With A13G G41A, the self-cleavage amounted to 0.448.

For the variant A13U C29A, the self-cleavage came out at 0.178.

On to A13U C29U, for which the self-cleavage worked out at 0.138.

With A13U C29G, the self-cleavage turned out to be 0.0771.

As to A13U G31U, the self-cleavage was determined as 0.402.

For A13U G31C, the self-cleavage is 0.217.

As to A13G G28C, the self-cleavage stood at 0.18.

On to A13G G28U, for which the self-cleavage amounted to 0.15.

For the variant A13U A60G, the self-cleavage came out at 0.398.

As to A13U A60U, the self-cleavage came out at 0.356.

For the variant C12U G56A, the self-cleavage stood at 0.844.

In the case of A13C C29A, the self-cleavage is 0.21.

As to A13C C29U, the self-cleavage was 0.0773.

Consider A13C G28A, for which the self-cleavage is 0.108.

With A13C G28C, the self-cleavage is 0.149.

Turning to A13C G28U, the self-cleavage turned out to be 0.116.

Regarding C12U U62G, the self-cleavage came to 0.542.

Consider C12U U62A, for which the self-cleavage was determined as 0.819.

For the variant A13U G30U, the self-cleavage stood at 0.228.

Turning to A13U G30A, the self-cleavage came to 0.487.

Turning to A13U G30C, the self-cleavage stood at 0.393.

Consider A13G U53C, for which the self-cleavage came out at 0.628.

For the variant A13G U53G, the self-cleavage came out at 0.737.

Regarding A13G U53A, the self-cleavage is 0.87.

For C12U U46A, the self-cleavage is 1.

As to C12U U46C, the self-cleavage is 0.939.

With A13C C35G, the self-cleavage is 0.323.

Turning to A13C C35U, the self-cleavage was determined as 0.751.

Take C12U U61A: the self-cleavage is 0.822.

Consider A13G C63A, for which the self-cleavage turned out to be 0.26.

With A13G C63G, the self-cleavage was found to be 0.504.

With A13G C63U, the self-cleavage came to 0.842.

In the case of A13G G50C, the self-cleavage is 0.881.

As to A13G G50U, the self-cleavage came out at 0.973.

For the variant A13G G50A, the self-cleavage came out at 0.896.

As to A13C A59G, the self-cleavage stood at 0.794.

For A13C A59U, the self-cleavage came out at 0.479.

For the variant A13C A59C, the self-cleavage was determined as 0.395.

As to A13U G14U, the self-cleavage turned out to be 0.437.

For the variant A13U G14A, the self-cleavage was found to be 0.328.

For the variant A13C G41U, the self-cleavage was found to be 0.349.

As for A13C G41C, the self-cleavage came out at 0.214.

For A13C U53A, the self-cleavage came out at 0.579.

For the variant A13G G48U, the self-cleavage amounted to 0.914.

As for A13G G48A, the self-cleavage came to 0.968.

Regarding A13C U21G, the self-cleavage stood at 0.135.

As to A13C U21A, the self-cleavage came to 0.772.

As for A13C U21C, the self-cleavage is 0.496.

As for C12U G68A, the self-cleavage is 0.997.

As for C12U G68U, the self-cleavage was 0.995.

In the case of A13U A42U, the self-cleavage came to 0.494.

Turning to A13U A42G, the self-cleavage was determined as 0.645.

A13C G37A: the self-cleavage is 0.14.

As to A13C G37U, the self-cleavage was determined as 0.225.

As to A13C U49A, the self-cleavage worked out at 0.922.

In the case of A13C U49G, the self-cleavage turned out to be 0.933.

As for A13C U49C, the self-cleavage turned out to be 0.842.

With A13G C34A, the self-cleavage turned out to be 0.797.

Turning to A13G C34G, the self-cleavage worked out at 0.293.

For the variant A13G C34U, the self-cleavage turned out to be 1.02.

On to A13C A40U, for which the self-cleavage amounted to 0.23.

Regarding A13C A40C, the self-cleavage was found to be 0.247.

Take A13G G14A: the self-cleavage is 0.276.

A13G G14U: the self-cleavage came to 0.146.

In the case of A13G G14C, the self-cleavage worked out at 0.255.

Regarding A13U A40G, the self-cleavage was 0.607.

As to A13U C24U, the self-cleavage worked out at 0.364.

Regarding A13U C24A, the self-cleavage was 0.301.

Take A13G C35G: the self-cleavage turned out to be 0.446.

A13G G19U: the self-cleavage is 0.0922.

Consider A13G G19A, for which the self-cleavage worked out at 0.155.

C12U U26C: the self-cleavage came to 0.996.

Consider C12U U26A, for which the self-cleavage came to 0.91.

With C12U U26G, the self-cleavage was 0.925.

For A13C U69G, the self-cleavage came out at 0.96.

In the case of A13C A60C, the self-cleavage amounted to 0.301.

As to A13C A60G, the self-cleavage amounted to 0.384.

In the case of A13C A23G, the self-cleavage was 0.507.

Turning to A13C A23U, the self-cleavage worked out at 0.788.
